Data on three variants can be found in IntAct's records for PubMed 23007647.

B1: Protein HEG homolog 1 (Homo sapiens), Q9ULI3 (parent)
chain: MASPRASRWPPPLLLLLLPLLLLPPAAPGTRDPPPSPARRALSLAPLAGAGLELQLERRPEREPPPTPPRERRGPATPGPSYRAPEPGAATQRGPSGRAPRGGSADAAWKHWPESNTEAHVENITFYQNQEDFSTVSSKEGVMVQTSGKSHAASDAPENLTLLAETADARGRSGSSSRTNFTILPVGYSLEIATALTSQSGNLASESLHLPSSSSEFDERIAAFQTKSGTASEMGTERAMGLSEEWTVHSQEATTSAWSPSFLPALEMGELTTPSRKRNSSGPDLSWLHFYRTAASSPLLDLSSSSESTEKLNNSTGLQSSSVSQTKTMHVATVFTDGGPRTLRSLTVSLGPVSKTEGFPKDSRIATTSSSVLLSPSAVESRRNSRVTGNPGDEEFIEPSTENEFGLTSLRWQNDSPTFGEHQLASSSEVQNGSPMSQTETVSRSVAPMRGGEITAHWLLTNSTTSADVTGSSASYPEGVNASVLTQFSDSTVQSGGSHTALGDRSYSESSSTSSSESLNSSAPRGERSIAGISYGQVRGTAIEQRTSSDHTDHTYLSSTFTKGERALLSITDNSSSSDIVESSTSYIKISNSSHSEYSSFFHAQTERSNISSYDGEYAQPSTESPVLHTSNLPSYTPTINMPNTSVVLDTDAEFVSDSSSSSSSSSSSSSSGPPLPLPSVSQSHHLFSSILPSTRASVHLLKSTSDASTPWSSSPSPLPVSLTTSTSAPLSVSQTTLPQSSSTPVLPRARETPVTSFQTSTMTSFMTMLHSSQTADLKSQSTPHQEKVITESKSPSLVSLPTESTKAVTTNSPLPPSLTESSTEQTLPATSTNLAQMSPTFTTTILKTSQPLMTTPGTLSSTASLVTGPIAVQTTAGKQLSLTHPEILVPQISTEGGISTERNRVIVDATTGLIPLTSVPTSAKEMTTKLGVTAEYSPASRSLGTSPSPQTTVVSTAEDLAPKSATFAVQSSTQSPTTVSSSASVNSCAVNPCLHNGECVADNTSRGYHCRCPPSWQGDDCSVDVNECLSNPCPSTAMCNNTQGSFICKCPVGYQLEKGICNLVRTFVTEFKLKRTFLNTTVEKHSDLQEVENEITKTLNMCFSALPSYIRSTVHASRESNAVVISLQTTFSLASNVTLFDLADRMQKCVNSCKSSAEVCQLLGSQRRIFRAGSLCKRKSPECDKDTSICTDLDGVALCQCKSGYFQFNKMDHSCRACEDGYRLENETCMSCPFGLGGLNCGNPYQLITVVIAAAGGGLLLILGIALIVTCCRKNKNDISKLIFKSGDFQMSPYAEYPKNPRSQEWGREAIEMHENGSTKNLLQMTDVYYSPTSVRNPELERNGLYPAYTGLPGSRHSCIFPGQYNPSFISDESRRRDYF
B2: Krev interaction trapped protein 1 (Homo sapiens), O00522 (parent)
chain: MGNPENIEDAYVAVIRPKNTASLNSREYRAKSYEILLHEVPIEGQKKKRKKVLLETKLQGNSEITQGILDYVVETTKPISPANQGIRGKRVVLMKKFPLDGEKMGREASLFIVPSVVKDNTKYTYTPGCPIFYCLQDIMRVCSESSTHFATLTARMLIALDKWLDERHAQSHFIPALFRPSPLERIKTNVINPAYATESGQTENSLHMGYSALEIKSKMLALEKADTCIYNPLFGSDLQYTNRVDKVVINPYFGLGAPDYSKIQIPKQEKWQRSMSSVTEDKERQWVDDFPLHRSACEGDSELLSRLLSERFSVNQLDSDHWAPIHYACWYGKVEATRILLEKGKCNPNLLNGQLSSPLHFAAGGGHAEIVQILLNHPETDRHITDQQGRSPLNICEENKQNNWEEAAKLLKEAINKPYEKVRIYRMDGSYRSVELKHGNNTTVQQIMEGMRLSQETQQYFTIWICSENLSLQLKPYHKPLQHVRDWPEILAELTNLDPQRETPQLFLRRDVRLPLEVEKQIEDPLAILILFDEARYNLLKGFYTAPDAKLITLASLLLQIVYGNYESKKHKQGFLNEENLKSIVPVTKLKSKAPHWTNRILHEYKNLSTSEGVSKEMHHLQRMFLQNCWEIPTYGAAFFTGQIFTKASPSNHKVIPVYVGVNIKGLHLLNMETKALLISLKYGCFMWQLGDTDTCFQIHSMENKMSFIVHTKQAGLVVKLLMKLNGQLMPTERNS

The variants in test [1] derive from B1. Conditions: with krit1_human KRIT1, O00522.
In the test “heg1_human HEG1, Q9ULI3” the parent is B2. The conditions noted are these: with heg1_human HEG1, Q9ULI3.
The variants in the test “ccm2_human CCM2, Q9BSQ5” derive from B2. The conditions noted are these: with ccm2_human CCM2, Q9BSQ5.
Chain of ccm2_human CCM2, Q9BSQ5 (Q9BSQ5 whole entry): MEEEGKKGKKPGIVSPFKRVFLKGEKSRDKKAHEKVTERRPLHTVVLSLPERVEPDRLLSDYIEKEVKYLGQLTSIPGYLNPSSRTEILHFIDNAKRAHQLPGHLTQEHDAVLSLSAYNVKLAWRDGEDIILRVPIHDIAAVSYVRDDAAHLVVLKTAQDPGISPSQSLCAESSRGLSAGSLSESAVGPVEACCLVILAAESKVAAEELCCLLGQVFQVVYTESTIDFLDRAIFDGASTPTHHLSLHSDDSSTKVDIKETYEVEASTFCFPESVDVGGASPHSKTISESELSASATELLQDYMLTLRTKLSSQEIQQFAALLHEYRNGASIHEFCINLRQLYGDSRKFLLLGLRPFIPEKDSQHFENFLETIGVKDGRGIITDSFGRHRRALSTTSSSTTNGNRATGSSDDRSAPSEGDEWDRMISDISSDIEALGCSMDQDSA
Test [2] covers variants of B2. The conditions noted are these: with rap1a_mouse Rap1a.

In the case of N1367A;F1370A, the “effect of a mutation on the interaction” value in test [1] was “with no effect”. On to L717A;L721A, for which the “effect of a mutation on the interaction” value is reported as “decreasing interaction strength” in the test with heg1_human HEG1, Q9ULI3; “with no effect” in the test with ccm2_human CCM2, Q9BSQ5; “with no effect” in test [2].

R452E: in test [2], the “effect of a mutation on the interaction” value is “disrupting interaction strength”.
